Experimental data published in patent US20250223364A1 (DREN BIO, published 2025).
One block for each molecule: values may come before it.

Legend:
[1] = biological target: cynomolgus monkey Dectin-1 (cynomolgus monkey); assay: flow cytometry on cynomolgus monkey monocytes
Human monocytes (human) = Human monocytes (human) (UniProt Q9BXN2); assay: cell binding; human monocytes
[2] = biological target: HEK-Blue hDectin-1a cells (UniProt Q9BXN2); assay: cell binding; HEK-Blue hDectin-1a cells
HEK293F hDectin-1a FL = HEK293F hDectin-1a FL (UniProt Q9BXN2); assay: cell binding; HEK293F hDectin-1a FL cells
[3] = biological target: HEK-Blue hDectin-1b cells (UniProt Q9BXN2); assay: cell binding; HEK-Blue hDectin-1b cells
[4] = biological target: T1, Dectin-1-expressing HEK cells (human, UniProt Q9BXN2 1-247); assay: flow cytometry; HEK cells
T1 chain: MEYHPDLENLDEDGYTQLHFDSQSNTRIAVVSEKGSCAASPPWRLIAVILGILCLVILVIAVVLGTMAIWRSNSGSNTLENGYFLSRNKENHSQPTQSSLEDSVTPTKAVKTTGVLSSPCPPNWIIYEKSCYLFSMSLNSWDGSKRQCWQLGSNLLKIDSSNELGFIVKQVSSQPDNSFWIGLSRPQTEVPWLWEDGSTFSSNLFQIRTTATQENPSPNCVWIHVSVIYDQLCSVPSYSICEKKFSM

[5] = biological target: T2, human Dectin-1 (isoform not given) (human, UniProt Q9BXN2 1-247); assay: flow cytometry on HEK 293 cells stably overexpressing human Dectin-1
T2 construct: whole, on cells; also called hDectin-1; Dectin-1 on human monocytes
T2 sequence (looked up): T1 chain

[6] = biological target: T3, cynomolgus monkey Dectin-1 (cynomolgus monkey, UniProt A0A2K5UXY6 35-281); assay: flow cytometry on cynomolgus monkey monocytes
T3 construct: whole, on cells; also called cynomolgus Dectin-1; Dectin-1 on cynomolgus monkey monocytes
T3 sequence: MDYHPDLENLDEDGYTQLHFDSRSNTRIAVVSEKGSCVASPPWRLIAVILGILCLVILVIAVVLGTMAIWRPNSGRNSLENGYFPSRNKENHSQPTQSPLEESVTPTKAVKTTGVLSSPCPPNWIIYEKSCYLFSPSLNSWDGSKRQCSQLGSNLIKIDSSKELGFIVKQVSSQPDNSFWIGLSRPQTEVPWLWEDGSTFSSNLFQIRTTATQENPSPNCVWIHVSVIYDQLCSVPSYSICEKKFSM

Molecule: 259931 commercial anti-Dectin-1 antibody
- EC50 [1]: 16 nM

Molecule: 15E2
- EC50 (Human monocytes (human)): 0.6 nM
- EC50 [2]: 1.2 nM
- EC50 (HEK293F hDectin-1a FL): 1.4 nM
- EC50 [3]: 9.3 nM

Molecule: GE2
- EC50 (Human monocytes (human)): 1.4 nM
- EC50 [2]: 1.9 nM
- EC50 (HEK293F hDectin-1a FL): 2.4 nM
- EC50 [3]: 12 nM

B3: anti-human Dectin-1 antibody clone 2M24 (mIgG1) (antibody, V domains shown)
VH: QVQLVQSGAEVKKPGASVKVSCKSSGYTFTDYYIHWVRQAPGQGLEWMGWINPNSGDTNYAQKFQGRITMTRDTSISTAYLELSRLRSDDTAVFYCARNSGSYSFGYWGQGTLVTVSS
VL: DIQMTQSPSSVSASVGDRVTITCRASQGISSWLAWYQQKPGKAPKLLIFGASSLQSGVPSRFSGSGSGTDFTLTVSSLQPEDFATYYCQQAYSFPFTFGPGTKVDIE
- EC50 [6]: 0.3 nM

Second part, the molecule after the results:

- EC50 [1]: 14 nM
Molecule: 15E2 commercial anti-Dectin-1 antibody

- EC50 [4]: 1.6 nM
B1: 2m24/RSV (bispecific antibody)
chain 1: B3 VH
chain 2: B3 VL
chain 3: QVTLRESGPALVKPTQTLTLTCTFSGFSLSTSGMSVGWIRQPPGKALEWLADIWWDDKKDYNPSLKSRLTISKDTSANQVVLKVTNMDPADTATYYCARSMITNWYFDVWGAGTTVTVSS
chain 4: DIQMTQSPSTLSASVGDRVTITCKCQLSVGYMHWYQQKPGKAPKLLIYDTSKLASGVPSRFSGSGSGTAFTLTISSLQPDDFATYYCFQGSGYPFTFGGGTKLEIK

- EC50 [5]: 1.45 nM
B2: Fab 2M24-mSA fusion protein (Fab, V domains shown)
VH: B3 VH
VL: B3 VL
